B1: recombinant nesfatin: recombinant matured mouse nesfatin (SEQ ID NO: 26) expressed in E. coli as GST fusion and cleaved with thrombin (protein)
chain: GSPIDVDKTKVHNTEPVENARIEPPDTGLYYDEYLKQVIEVLETDPHFREKLQKADIEEIRSGRLSQELDLVSHKVRTRLDELKRQEVGRLRMLIKAKLDALQDTGMNHHLLLKQFEHLNHQNPNTFESRDLDMLIKAATADLEQYDRTRHEEFKKYEMMKEHERREYLKTLSEEKRKEEESKFEEMKRKHEDHPKVNHPGSKDQLKEVWEETDGLDPNDFDPKTFFKLHDVNNDGFLDEQELEALFTRELEKVYNPQNAEDDMIEMEEERLRMREHVMSEIDNNKDRLVTLEEFLRATEKKEFLEPDSWETLDQQQLFTEDELKEYESIIAIQENELKKRAEELQKQKEDLQRQHDHLEAQKQEYHQAVQHLEQKKLQQGIAPSGPAGELKFEPHT
modifications: Chemically-synthesized nesfatin mutant protein

Columns and labels:
Wistar rats [1] = assay: Continuous intraventricular administration of nesfatin antisense RNA, food intake and body weight; format: in vivo, rat
Protocol: As the antisense RNA against nesfatin-1 gene, was used a morpholino RNA which sandwiches a translational start site, as follows.
The administration of nesfatin antisense RNA was carried out into the ventricle by an osmotic pump for 12 consecutive days using an osmotic pump. Among 8 week-old male Wistar rats (purchased from Nippon SLC), those individuals weighing 200-250 g were selected and used. The rats received intraperitoneal administration of 40 mg/kg body weight of pentobarbital sodium for anesthesia. After the hair was removed from the head, they were fixed in a brain stereotaxic apparatus (David Kopf Instruments, Model 962) and the scalp was incised and a 23G needle (guide cannula) was implanted so that the tip reaches the third ventricle (2.5 mm behind the bregma, 9.5 mm from the surface). One week after implanting the guide cannula, the animals were subjected to the experiment. The osmotic pump used was Alzet's Model 2002 that was primed in sterilized physiological saline from the day before use. Nesfatin antisense RNA (antisense administration group) dissolved in physiological saline that was filter-sterilized with 0.22 μm Millex GV filter, or missence RNA (ATcGTgCTCCACgTCATCTaCAcAG) sterilized in the same manner that dissolved in sterilized physiological saline (control group) were injected into the osmotic pump immediately before use. […] The measurement of the amount of food intake started from the day after the cannula and the osmotic pump were implanted, and the weight of the residual food was measured at 9 a.m. every day and, by determining the difference from the weight of the food on the previous day, the amount of food intake of the day (24 hours) was calculated. From day 6 after the start of administration, body weight was measured at the time of measuring the amount of food intake, and changes in body weight were also recorded.

nesfatin-1 = assay: Western blotting of nesfatin-1 in hypothalamus after antisense RNA administration (densitometry); format: in vivo; conditions: rat hypothalamus, day 12; control group 14.3±1.2 AU
Protocol: On day 12 after the start of administration, the individuals in each group were sacrificed, and the hypothalamus in the brain was removed. Using the sample extracted, the expression of nesfatin was confirmed by Western blotting with nesfatin-1 Ab. Western blotting was carried out in a manner similar to those described in Working Examples 13 and 12. The concentration of bands stained in Western blotting was determined by densitometry.

Wistar rats [2] = assay: Administration of recombinant nesfatin into the third ventricle, amount of food intake; format: in vivo, rat
Protocol: Rats used were Wistar rats (purchased from Nippon SLC), and the animals were housed under a cycle of 12 hours of the light period from 6 a.m. to 6 p.m. and 12 hours of the dark period from 6 p.m. to 6 a.m. the next morning and fed a powder chew (Nippon Clea, CE-2), and kept at 22° C., and housing was continued under a similar condition during the experiment. For the experiment, among 8-9 week-old male Wistar rats, those individuals weighing 200-250 g were used. For administration, 5 μl of saline (control) or recombinant nesfatin prepared in Working Example 5 dissolved to 0.2 pmol, 0.6 pmol and 3.0 pmol in 5 μl of PBS was administered per individual (N=5 for each group). The rats received intraperitoneal administration of 40 mg/kg body weight of pentobarbital sodium for anesthesia. After the hair was removed from the head, they were fixed in a brain stereotaxic apparatus (David Kopf Instruments, Model 962) and the scalp was incised and a 23G needle (guide cannula) was implanted so as to reach the third ventricle (2.5 mm behind the bregma, 9.5 mm from the surface). One week after implanting the guide cannula, the animals were subjected to the experiment. After recovering from the surgery, a 29G cannula for injection was inserted into the guide cannula under no anesthesia, and 5 μl of PBS or the matured mouse nesfatin solution in PBS was administered at a rate of 1 μl/second. After fixing the cannula as it was for 2-3 minutes after the administration, the cannula was extracted, and the animals were returned to the individual cages. One, three, and six hours thereafter, the weight of the food was determined to record the amount of food intake, which was used as an index of feeding behavior. For the test of significant difference, analysis of variance was used.
The PCR product obtained was subjected to 1% agarose gel electrophoresis to excise an amplified band, which was purified with QIAEX-II kit (QIAGEN). The amplified DNA excised was cleaved with restriction enzymes SpeI and NotI, and ligated to pET41a(+) plasmid vector (Novagen) cleaved with restriction enzymes SpeI and NotI, using the Quick DNA ligase kit (New England Biolabs). From the cloned DNA, a clone, which has no errors in mutant portions introduced after analyzing DNA sequences in a similar manner to Working Example 5 and other nucleotide sequences, can be selected to obtain a vector for expressing the KR-AA mutant. The expression and purification were carried out in a similar manner to Working Example 5. The amino acid sequence of the KR-AA mutant obtained is set forth in SEQ ID NO: 61. Wt (normal nesfatin), which was prepared in Working Example 5, was used. 5 pmol each of the KR-AA mutant (Mut) peptide and the normal nesfatin (Wt) peptide were administered to the third ventricle of rats in a similar manner to Working Example 6. One, three, six and 12 hours thereafter, the weight of the food was determined to record the amount of food intake, which was used as an index of feeding behavior.
Also, in the same manner as in Working Example 6, after 5 pmol of nesfatin was administered into the rat ventricle, the amount of food intake was determined during 0-1 hour/1-3 hours/3-6 hours after the administration. The control group used was the one that only received physiological saline (0 pmol). For testing of significant difference, analysis of variance was used.

Wistar rats [3] = assay: Administration of nesfatin-1, nesfatin-2, nesfatin-3, nesfatin-2/3 into the third ventricle, amount of food intake; format: in vivo, rat; conditions: given alone into the third ventricle (nesfatin-1 5 pmol; leptin 1 μg); vs saline control
Protocol: Samples used for intracerebral administration were PBS alone (vehicle group), or nesfatin-1, nesfatin-2, nesfatin-3 or nesfatin-2/3 prepared in Working Example 10 each dissolved in PBS, and 25 pmol was administered per individual into the third ventricle immediately before the dark period. Rats used were Wistar rats (purchased from Nippon SLC) and were housed as in Working Example 6, and among 8-9 week-old male Wistar rats, those individuals weighing 200-250 g were selected and used (N=5). The technique of intraventricular administration and the measurement of the amount of food intake in rats were carried out in a method similar to those in Working Example 6. In the measurement of the amount of food intake, the reduced amount of food at 1 hour after administration (0-1 hr) and 2 hours after administration (1-3 hrs) was determined as food intake.
In the same condition above, 1, 5 or 25 pmol of nesfatin-1 as a sample was administered per rat individual into the third ventricle immediately before the dark period. In this experiment, the amount of food intake was determined at 1 hour after administration (0-1 hr).
The experimental condition was similar to that in Working Example 12, and 5 pmol of nesfatin-1 was administered into the third ventricle of the rat brain immediately before the start of the dark period, the amount decreased of the food (the amount of food intake) during 1 hour immediately after administration (0-1 hr), during 2 hours from 1 hour after the administration (1-3 hr), during 3 hours from 3 hours after the administration (3-6 hr), and during 6 hours from 6 hours after the administration (6-12 hr) was measured as the amount of food intake. As the control group, the amount of food intake by individuals that received physiological saline alone was measured.
The experimental condition was similar to that in Working Example 12, and for a group that received 5 pmol of nesfatin-1 alone into the third ventricle of the rat brain immediately before the start of the dark period and a group that received 5 pmol of nesfatin-1 and 8 μg of anti-nesfatin-1 antibody (nesfatin-1 IgG), the amount of food intake for 1 hour after administration was measured and compared to that for the control group (physiological saline alone was administered). Also, for a group that received only leptin (Rat leptin: R & D Systems, 598-LP-01M) (1 μg) which is known to have an activity of suppressing food intake by intraventricular administration and a group that received leptin and anti-nesfatin-1 antibody, its effect on food intake was also studied.

Molecule	amount of food intake during 24 hours (Wistar rats [1]; 40 μg, osmotic pump, third ventricle, 12 days, from day 1, vs missense RNA control)	body weight (Wistar rats [1]; day 6 after the start of administration, vs missense RNA control)	body weight (Wistar rats [1]; day 7 and after, P<0.05 vs missense RNA control)	expression of nesfatin-1, band intensity by densitometry (nesfatin-1) [AU]	amount of food intake (Wistar rats [2]; 4 pmol or 20 pmol into the brain ventricle, 0-1 hour, p<0.01 vs 0 pmol)	amount of food intake (Wistar rats [2]; 5 pmol intraventricular, 0-1 hour (p<0.01), 1-3 hours (p<0.05) and 3-6 hours (p<0.001))	control activity of food intake (Wistar rats [2]; 5 pmol intraventricular, 0-1 hour, 1-3 hour and 3-6 hours)	amount of food intake (Wistar rats [2]; 5 pmol intraventricular, 6-12 hours)	amount of food intake (Wistar rats [2]; 20 pmol into the third ventricle, any of 0-1 hour/1-3 hours/3-6 hours, P<0.01 vs control)	amount of food intake (Wistar rats [2]; 1, 4 and 20 pmol into the third ventricle, 0-1, 1-3 and 3-6 hours, vs saline)	amount of food intake for 1 hour after administration (Wistar rats [3])
5-ATGGTCCTCCACCTCATCTTCAGAG-3 (all phosphorodiamidate morpholino (PMO)) [nesfatin antisense RNA]	an increase in the amount of food intake	no difference	significant increase in body weight	8.5±0.7	–	–	–	–	–	–	–
B1	–	–	–	–	significantly reduced	significant reduction in the amount of food intake	a significant control activity of food intake was observed	no difference	significant activity of suppressing food intake	reduction in the amount of food intake was noted in a dose dependent manner	significantly decreased

From patent US7795390B2, “Biological substance nesfatin and its related substances and uses thereof” (Teijin Pharma Limited, priority 2005, dated 2010)
